Columns and labels:
T cells = assay: IL12/IL2 effect on T cell expansion and IFNgamma positive CD4+/CD8+ T cells; assay type: cell-based, human
Excerpt: The goal of the study was to determine the T cell stimulation regimen and dose of IL12 needed to maximize T cell persistence and T cell differentiation in vitro, to mimic an in vivo adoptive cell transfer therapy regimen. The study recapitulates the design of the adoptive cell therapy regimen wherein the T cells were initially exposed to the antigen in vitro which results in activation followed by a resting phase and finally in vivo transfer where the T cells encounter the antigen again. T cells were stimulated CD3/CD28 beads or soluble CD3/CD28 on day 0 and the CD3/CD28 stimulus was washed off at the end of 48 hours. Cells were treated with a dose of IL12 ranging from 0.01-1000 ng/mL. On day 9, the Th1 phenotype of the cells was evaluated by examining the frequency of IFNgamma positive CD4+ cells and CD8+ cells. On day 14, cells were divided into two groups—one group received a second CD3/CD28 stimulation and a second group that was not stimulated. On day 16, the Th1 phenotype was evaluated in both groups using FACS.
To test the requirement of IL2 and IL12 for T cells expansion and activation, T cells were stimulated with soluble CD3/CD28, CD3/CD28 Dynabeads or left unstimulated for two days. Each of these groups was further split into two sub groups. One sub group was treated with IL2 and 100 ng/ml of IL12 while the second sub group was treated with IL2 only for the duration of the stimulation. For the soluble CD3/CD28 stimulated cells, a third subgroup that was only treated with 100 ng/ml of IL12 was also included.
The effect of IL12 on T cell activation was measured by determining the frequency of IFNgamma positive CD4+ and CD8+ T cells. IFNg is produced by activated T cells. Three different stimulation protocols were used. In the first protocol, cells were stimulated with CD3/CD28 dynabeads for 2 days, following which the beads were washed off and the cells were treated with varying concentrations of IL12 for 7 days (from day 2 to day 9). At day 9, cells were restimulated with soluble CD3/CD28 and the frequency of IFNgamma positive cells was determined by FACS. […] In the second protocol, following 2 day CD3/CD28 dynabeads stimulation, T cells were maintained in culture for a longer duration of 14 days i.e. from day 2 to day 16. At day 16, cells were restimulated with soluble CD3/CD28. At day 16, the frequency of IFNgamma positive cells was measured. […] In the third protocol, T cells were initially stimulated for 2 days with CD3/CD28 dynabeads and IL2, followed by treatment with IL2 only for 9 days (i.e. from day 2 to day 11), followed by IL12 treatment for 2 to 5 days. In the last two days of the experiment, cells were also restimulated with soluble CD3/CD28. IFNgamma positive CD4 and CD8 cells were measured using FACS. The third protocol mimics the environment that is presented to T cells in adoptive cell therapy, both during in vitro transduction and T cells expansion as well as the in vivo.

Human T cells = assay: IL12 induced differentiation of human T cells, IFN gamma / CD3 flow cytometry; assay type: cell-based; details: IL12 treated (untreated 0.21)
Method: IL12 promotes the differentiation of naïve T cells into Th1 cells which results in the secretion of IFN gamma from T cells. Human T cells were treated with IL12 or left untreated and analyzed by flow cytometry for the expression of IFN gamma and T cell marker CD3.

NK-92 cells = assay: NK-92 activation markers with IL12 (Table 83); assay type: cell-based; details: IL12 10 ng/ml, 18 h
Method: The dependency of the NK-92 cells on cytokines for activation was tested. […] The cells were cultured for 18 hours in the presence of IL12 (10 ng/ml) or varying concentrations of IL15 (100 ng/ml, 20 ng/ml, 4 ng/ml, 0.8 ng/ml, 0.16 ng/ml, 0.032 ng/ml, 0.0064 ng/ml and 0.00128 ng/ml). NK-92 cell activation in response to IL15 and IL12 treatment was evaluated by FACS analysis using a panel of markers whose increased expression is associated with NK activation. These include NKG2D, CD71, CD69; chemokine receptors such as CCR5, CXCR4, and CXCR3, Perforin, Granzyme B and Interferon gamma (IFNg). Prior to FACS analysis for IFNg, cells were cultured for 4 hours with Brefeldin A. NK cells respond to external stimuli such as cytokines in their environment through the phosphorylation of proteins JAK/STAT, ERK, and p38/MAPK pathways which are important for cell activation, signaling and differentiation pathways. The phosphorylation of AKT, STAT3 and STAT5 in response to cytokine addition was measured by FACS. Since phosphorylation events are transient NK-92 cells were treated with the cytokines for 15 or 60 minutes, prior to the analysis.

HCT-116 = assay: Surface expression of IL15-IL15Ra fusion constructs, PE-IL15Ra antibody FACS; assay type: cell-based, human; details: for Median Fluorescence Intensity, surface IL15-IL15Ra: 24 h
Method: Membrane bound-IL15-IL15Ra constructs (OT-IL15-008 to OT IL-15-011) were transduced into human colorectal carcinoma cell line, HCT-116 and stable integrants were selected with 2 μg of puromycin.
Surface expression of IL15-IL15Ra fusion constructs was examined by staining with PE-conjugated IL15Ra antibody (Cat no. 330207, Biolegend, San Diego, CA). The median fluorescence intensity obtained with the different constructs in the presence or absence of the corresponding ligand is presented in Table 53. The stabilization ratio was calculated as the fold change in fluorescence intensity in ligand treated samples compared to treatment with DMSO (i.e. in the absence of ligand) with the same construct. The destabilization ratio was calculated as the fold change in fluorescence intensity in the DD regulated constructs compared to the constitutive construct (OT-IL15-008) in the absence of the ligand. Destabilization ratios less than 1 and stabilization ratios greater than 1 are desired in DDs.
Membrane bound-IL15-IL15Ra constructs (OT-IL15-008 to OT IL15-011) were transduced into human colorectal carcinoma cell line, HCT-116 and stable integrants were selected with 2 μg of puromycin.
Surface expression of IL15-IL15Ra fusion constructs was examined by staining with PE-conjugated IL15Ra antibody (Cat no. 330207, Biolegend, San Diego, CA). The median fluorescence intensity obtained with the different constructs in the presence or absence of the corresponding ligand is presented in Table 55.
The stabilization ratio was calculated as the fold change in GFP intensity in ligand treated samples compared to treatment with DMSO (i.e. in the absence of ligand) with the same construct. The destabilization ratio was calculated as the fold change in GFP intensity in the DD regulated constructs compared to the constitutive construct (OT-IL15-008) in the absence of the ligand. Destabilization ratios less than 1 and stabilization ratios greater than 1 are desired in DDs.

HEK-293T cells = assay: IL15 western blot of DD IL15-IL15Ra, transient transfection; assay type: cell-based, human; details: 10 μM Trimethoprim or 1 μM Shield-1, 24 h
Method: To test ligand dependent IL15-IL15Ra production, 1 million HEK-293T cells were plated in a 6-well plate in growth media containing DMEM and 10 FBS and incubated overnight at 37° C., 5% CO2. […] Cells were harvested and IL15 levels are analyzed via western blotting using human IL15 antibody (Abcam, Cambridge, UK).

NIH 3T3 cells = assay: hDHFR mutant-GFP reporter stability with DMSO, MTX or TMP (FACS); assay type: cell-based; details: for GFP intensity Fold Change vs DMSO: 48 h; for Destabilizing mutation co-efficient: GFP intensity vs hDHFR (WT); for Destabilizing mutation co-efficient / Median Fluorescence signal with DMSO: no ligand; for Median Fluorescence signal with DMSO: hDHFR-GFP, DMSO 48 h
Excerpt: Known destabilizing mutations in E. coli DHFR (ecDHFR) were mapped onto the structure of human DHFR (hDHFR) and corresponding mutations in wild type hDHFR protein were generated using site directed mutagenesis. hDHFR mutants were then fused to a linker, GGSGGG (SEQ ID NO: 2728) and a GFP reporter gene at the N terminus. […] The hDHFR N terminus mutant construct cloned into pLVX. IRES. The reporter constructs were transfected into NIH 3T3 cells. […] DMSO was used as control. Fluorescence signal was measured by FACS and median fluorescence signal intensity was calculated. The destabilizing mutation co-efficient was calculated as the fold change in GFP intensity in the hDHFR mutant constructs compared to the hDHFR (WT) in the absence of the ligand. Destabilizing mutation co-efficients less than 1 are desired in DDs.
Percentage of GFP positive cells as a measure of ligand dependent DD stabilization in each transfection was calculated using FACS Calibur™ (see Table 46).

hDHFR = assay: Immunoblot of hDHFR WT and mutants after TMP, MTX or DMSO; assay type: cell-based, human; details: MTX or DMSO 48 h
Excerpt: The results were consistent using both the AcGFP antibody as well as the hDHFR antibody.

HEK 293T cells = assay: GFP-hDHFR C terminus fusions, MFI (FACS); assay type: cell-based, human; details: 1 μM MTX or 50 μM TMP, 48 h
Method: DDs may be positioned upstream or downstream of the payload within an SRE. hDHFR mutants generated by structure guided mutagenesis as discussed in example 2 were fused at the C-terminus of GFP to test if the hDHFR mutants can destabilize proteins of interest when fused to the C-terminus of the protein of interest. A linker, GGSGGG (SEQ ID NO. 6413) was placed between GFP and hDHFR and cloned into pLVX.IRES. Puro.
Following the incubation, median fluorescence intensity (MFI) was measured using FACS.

| Molecule | % GFP positive cells (NIH 3T3 cells; 1 μM MTX) | GFP intensity Fold Change vs DMSO (NIH 3T3 cells; 1 μM MTX) | % GFP positive cells (NIH 3T3 cells; 10 μM TMP) | GFP intensity Fold Change vs DMSO (NIH 3T3 cells; 10 μM TMP) | % GFP positive cells (NIH 3T3 cells; DMSO) | Destabilizing mutation co-efficient (NIH 3T3 cells) | Median Fluorescence signal with DMSO (NIH 3T3 cells) | Protein level stabilization (immunoblot, FIG. 19) (hDHFR) | other results |
| --- | --- | --- | --- | --- | --- | --- | --- | --- | --- |
| IL12: cytokine added to T cells or NK-92 cells |  |  |  |  |  |  |  |  | Requirement for T cell expansion (FIG. 37A) (T cells; 14 days, CD3/CD28 stimulation): may be dispensable; IL12 dose causing Th1-skewing and IFN gamma production (T cells; T cells in vitro, day 16): 0.1 ng/mL; EC50, IFNgamma positive cells (T cells; first protocol (7 days IL12), CD8 cells): 0.05 ng/mL; EC50, IFNgamma positive cells (T cells; second protocol (14 days), CD4 cells): 0.012 ng/mL; EC50, IFNgamma positive cells (T cells; second protocol (14 days), CD8 cells): 0.065 ng/mL; EC50, IFNgamma positive cells (T cells; third protocol, IL12 final 5 days, CD4 cells): 0.024 ng/mL; EC50, IFNgamma positive cells (T cells; third protocol, IL12 final 5 days, CD8 cells): 0.04 ng/mL; Percentage of IFN gamma positive T cells (Human T cells): 22.3%; Fold change in MFI vs untreated, CCR5 (NK-92 cells): 1.60; Fold change in MFI vs untreated, Granzyme (NK-92 cells): 1.87; Fold change in MFI vs untreated, IFNg (NK-92 cells): 1.74; Fold change in MFI vs untreated, Perforin (NK-92 cells): 1.67; Fold change vs untreated, IFNg (supernatant) (NK-92 cells): 666.15 |
| OT-IL15-006: IL15-IL15Ra fusion with ecDHFR (R12Y, E129K) DD |  |  |  |  |  |  |  |  | Median Fluorescence Intensity, surface IL15-IL15Ra (HCT-116; 10 μM TMP): 2978; Median Fluorescence Intensity, surface IL15-IL15Ra (HCT-116; DMSO): 764; Stabilization ratio (HCT-116; TMP vs DMSO): 3.90; Destabilization ratio (HCT-116; vs constitutive OT-IL15-008, no ligand): 0.14; IL15 stabilization by western blot (FIG. 24A) (HEK-293T cells): modest ligand dependent stabilization of IL15 |
| OT-hDHFRN-005: hDHFR A125F, Y122I-GFP (protein, UniProt P00374 1-187, looked up, variant A125F Y122I, GFP fusion, hDHFR A125F, Y122I-GFP) Dihydrofolate reductase: MVGSLNCIVAVSQNMGIGKNGDLPWPPLRNEFRYFQRMTTTSSVEGKQNLVIMGKKTWFSIPEKNRPLKGRINLVLSRELKEPPQGAHFLSRSLDDALKLTEQPELANKVDMVWIVGGSSVIKEFMNHPGHLKLFVTRIMQDFESDTFFPEIDLEKYKLLPEYPGVLSDVQEEKGIKYKFEVYEKND | 89.6% | 26.98 | 54.7% | 6.24 | 0.64% | 0.14 | 2.55 | stabilized following treatment with both MTX and TMP |  |
| OT-hDHFRN-007: hDHFR L94A, T147A-GFP (protein, UniProt P00374 1-187, looked up, variant L94A T147A, GFP fusion, hDHFR L94A, T147A-GFP) Dihydrofolate reductase: MVGSLNCIVAVSQNMGIGKNGDLPWPPLRNEFRYFQRMTTTSSVEGKQNLVIMGKKTWFSIPEKNRPLKGRINLVLSRELKEPPQGAHFLSRSADDALKLTEQPELANKVDMVWIVGGSSVYKEAMNHPGHLKLFVTRIMQDFESDAFFPEIDLEKYKLLPEYPGVLSDVQEEKGIKYKFEVYEKND | 40.7% | 4.46 | 0.52% | 1.00 | 0.26% | 0.15 | 2.67 | stabilization exclusively with MTX |  |
| OT-hDHFRN-008: hDHFR G21T, Y122I-GFP (protein, UniProt P00374 1-187, looked up, variant G21T Y122I, GFP fusion, hDHFR G21T, Y122I-GFP) Dihydrofolate reductase: MVGSLNCIVAVSQNMGIGKNTDLPWPPLRNEFRYFQRMTTTSSVEGKQNLVIMGKKTWFSIPEKNRPLKGRINLVLSRELKEPPQGAHFLSRSLDDALKLTEQPELANKVDMVWIVGGSSVIKEAMNHPGHLKLFVTRIMQDFESDTFFPEIDLEKYKLLPEYPGVLSDVQEEKGIKYKFEVYEKND | 86.6% | 14.53 | 2.92% | 1.30 | 0.61% | 0.18 | 3.27 | stabilization exclusively with MTX |  |
| OT-hDHFRC-015: GFP-hDHFR (A125F, Y122I) (protein, UniProt P00374 1-187, looked up, variant A125F Y122I, N-terminal GFP fusion) Dihydrofolate reductase: MVGSLNCIVAVSQNMGIGKNGDLPWPPLRNEFRYFQRMTTTSSVEGKQNLVIMGKKTWFSIPEKNRPLKGRINLVLSRELKEPPQGAHFLSRSLDDALKLTEQPELANKVDMVWIVGGSSVIKEFMNHPGHLKLFVTRIMQDFESDTFFPEIDLEKYKLLPEYPGVLSDVQEEKGIKYKFEVYEKND |  |  |  |  |  |  |  |  | MFI change over DMSO, GFP-hDHFR C terminus fusion (FIG. 20) (HEK 293T cells): several fold increase in MFI over DMSO with both MTX and TMP |
